From patent WO2009055074A2 (dated 2009)
Where a chain is given by its changes, count along the chain named.

B1: S1R3A1_DP47_1A6 (scFv, V domains shown)
VH: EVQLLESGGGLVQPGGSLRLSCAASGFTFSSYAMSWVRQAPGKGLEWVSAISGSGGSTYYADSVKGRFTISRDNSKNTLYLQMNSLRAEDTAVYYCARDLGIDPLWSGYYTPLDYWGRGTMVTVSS
VL: HVILTQPPSASGTPGQRVTISCSGSSSNIGSNSVSWYQQLPGTAPKLLMYTNNQRPSGVPDRFSGSKSGTSASLAISGLQSEDEADYYCATWDASLNTWVFGGGTKVTVLG
notes: scFv (one chain), soluble from the bacterial periplasm in the screening; also called Her2_S1R3A1_DP47_1A6
B2: S1R3C1_DP47_1H1 (scFv, V domains shown)
VH: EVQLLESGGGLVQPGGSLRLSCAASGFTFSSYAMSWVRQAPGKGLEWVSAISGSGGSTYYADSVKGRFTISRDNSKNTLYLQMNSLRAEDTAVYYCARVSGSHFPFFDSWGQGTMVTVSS
VL: QSVLTQPPSVSVAPGQTARITCGGDKIGHKSVHWYQQKPGQAPVLLVYDDRKRPSGIPERFSGSNSGNTATLTISRVEAGDEAAYHCQVWDRSSDPYVFGTGTKVTVLG
notes: scFv (one chain), soluble from the bacterial periplasm in the screening; also called Her2_S1R3C1_DP47_1H1
B3: S1R3B1_BMV_1A1 (scFv, V domains shown)
VH: EVQLVQSGAEVKEPGASVKVSCKASGYDFSNYGFSWVRQAPGQGLEWMGWISSYNGYTNYAQRLQGRVTMTTDTSTSTAYMELRSLRSDDTAVYYCARDRGLGNWYFDLWGQGTLVTVSS
VL: QSVLTQPASVSGSPGQSITISCTGTSSDVGGYNYVSWYQQHPGKAPKLMIYEGSKRPSGVSNRFSGSKSGNTASLTISGLQAEDEADYYCSSYTTRSTRVFGGGTKLTVLG
notes: scFv (one chain), soluble from the bacterial periplasm in the screening; also called Her2_S1R3B1_BMV_1A1
B4: S1R3B1_BMV_1G11 (scFv, V domains shown)
VH: QVQLVQSGGGLVQPGGSLRLSCAASGFTFSTYAMSWARQAPGKGLEWVSSISGDGGRILDADSAKGRFTISRDNSKNTLYLQMNGLRVEDTALYYCARADGNYWGRGTMVTVSS
VL: B3 VL
notes: scFv (one chain), soluble from the bacterial periplasm in the screening; also called Her2_S1R3B1_BMV_1G11
B5: S1R3A1_BMV_1G4 (scFv, V domains shown)
VH: QVQLVESGAEVKKPGASVKVSCKASGYTFTSYDINWVRQAPGQRLEWMGWINAGNGNTKYSQKFQGRVTITRDTSASTAYMELRSLRSDDTAVYYCARGRSYGHPYYFDYWGQGTLVTVSS
VL: B3 VL
notes: scFv (one chain), soluble from the bacterial periplasm in the screening; also called Her2_S1R3A1_BMV_1G4
B6: S1R3A1_CS_1B12 (scFv, V domains shown)
VH: QVQLVQSGAEVKKPGASVKVSCQASGYTFSGHYMHLVRQAPGQGLEWMGWIHPTSGGTTYAQKFQGRVVMTRDTSISTAYMELSRLTSDDTAVYYCARMSQNYDAFDIWGQGTMVTVSS
VL: QAVLTQPSSVSGAPGQRVTISCTGSSSNIGAGYDVNWYQQFPGTAPKIIVYGDRPSGAPDRFSGSKSGTSASLAITGLRAEDEADYYCQSWDSRLSSYVFGTGTKVTVLG
notes: scFv (one chain), soluble from the bacterial periplasm in the screening; also called Her2_S1R3A1_CS_1B12
B7: S1R3B1_BMV_1H11 (scFv, V domains shown)
VH: EVQLVQSGGGLVKPGGSLRLSCAASGFTFSSYGMHWVRQAPGKGLEWVAGIFYDGGNKYYADSVKGRFTISRDNSKNTLYLQMNSLRAEDTAVYYCARDRGYYYMDVWGKGTTVTVSS
VL: QSVLTQPPSVSGAPGQRVTISCTGRSSNIGAGHDVHWYQQLPGTAPKLLIYGDSNRPSGVPDRFSGSRSGTSASLAITGLQAEDEADYYCQSYDSSLRGSVFGGGTKVTVLG
notes: scFv (one chain), soluble from the bacterial periplasm in the screening; also called Her2_S1R3B1_BMV_1H11
B8: S1R3C1_BMV_1H11 (scFv, V domains shown)
VH: GVQLVESGGGLVKPGGSLRLSCAASGFTFSSYNMNWVRQAPGKGLEWVSAISGSGGSTYYADSVTGRFTISRDNSKNTLYLQMNSLRAEDTAVYYCAKDTSGWYGDGMDVWGRGTLVTVSS
VL: DIQMTQSPSTLSASIGDRVTITCRASEGIYHWLAWYQQKPGKAPKLLIYKASSLASGAPSRFSGSGSGTDFTLTISSLQPDDFATYYCQQYSNYPLTFGGGTKLEIKR
notes: scFv (one chain), soluble from the bacterial periplasm in the screening; also called Her2_S1R3C1_BMV_1H11
B9: S1R3B1_BMV_1A10 (scFv, V domains shown)
VH: QMQLVQSGGGVVQPGRSLRLSCAASGFTFSSYGMHWVRQAPGKGLEWVAVISYDGSIKYYADSVKGRFTISRDNSKNTLYLQMNSLRAEDTGVYYCSKDRYSSGWYSSDAFDIWGRGTMVTVSS
VL: SSELTQDPAVSVALGQTVRITCQGDSLRSYYASWYQQKPGQAPVLVIYGKNNRPSGIPDRFSGSSSGNTASLTITGAQAEDEADYYCHSRDSSGNHVLFGGGTKLTVLG
notes: scFv (one chain), soluble from the bacterial periplasm in the screening; also called Her2_S1R3B1_BMV_1A10
B10: S1R3B2_BMV_1H5 (scFv, V domains shown)
VH: EVQLVQSGGGLVRPGGSLRLSCAASGFSFSDYYMTWIRQIPGKGLEWVAVIWNDGSDRYYADSVKGRFTISRDNSKNTLFLQMSSLRDEDTALYYCVRGGPTASSGFDYWGRGTLVTVSS
VL: B3 VL with Q1S, V3E, Q39L
notes: also called Her2_S1R3B2_BMV_1H5
B11: S1R3B2_DP47_1E10 (scFv, V domains shown)
VH: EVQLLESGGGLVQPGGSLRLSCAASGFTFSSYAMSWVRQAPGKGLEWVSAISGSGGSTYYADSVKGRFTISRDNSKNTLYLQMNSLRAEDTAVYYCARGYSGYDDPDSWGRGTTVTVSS
VL: HVILTQPPSTSGTPGQTVTISCSGSSSNIGSHYVYWYQQLPGTAPKLLIYRNNQRPSGVPDRFSGSKSGTSASLAISGLRSEDETDYYCAAWDDSLSGRVFGTGTKLTVLG
notes: also called Her2_S1R3B2_DP47_1E10
B12: S1R3B2_BMV_1G2 (scFv, V domains shown)
VH: QVQLVQSGAEVKKPGSSVKVSCKASGYTFTSYGISWVRQAPGQGLEWMGWISAYNGNTNYAQKLQGRVTMTTDTSTSTAYMELRSLRSDDTAVYYCARVPGVSGSYPDYYYMDVWGKGTLVTVSS
VL: B8 VL
notes: also called Her2_S1R3B2_BMV_1G2
B13: S1R3C1_CS_1A6 (scFv, V domains shown)
VH: EVQLVQSGAEVKKPGESLKISCKGFGYNFRSAWIGWVRQMPGKGLEWMGVIYPGDSDVRYSPSFQGQVTISADKSISTAYLQWSSLKASDTAMYYCTRPVGQWVDSDYWGKGTLVTVSS
VL: QSVLTQPPSASGTPGQRVTISCSGSSSNIGTNTVNWYQQLPGTAPKLLIYTSNQRPSGVPARFSASNSGTSASLAISGLRSEDEADYYCAAWDDKLSGAVFGGGTKLTVLG
notes: also called Her2_S1R3C1_CS_1A6
B14: S1R2C_CS_1H12 (scFv, V domains shown)
VH: EVQLVETGGGLVQPGGSLRLSCAASGFTFSSYGMNWVRQAPGKGLEWVSYISSSGNTIFYADSVKGRFTISRDSAKNSVSLQMNSLRDEDTAVYYCASYYSYYYGMDAWGQGTMVTV
VL: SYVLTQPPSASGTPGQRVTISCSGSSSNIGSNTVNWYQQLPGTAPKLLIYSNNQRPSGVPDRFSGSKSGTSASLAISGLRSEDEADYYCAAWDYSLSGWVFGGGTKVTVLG
B15: S1R3B2_DP47_1E8 (scFv, V domains shown)
VH: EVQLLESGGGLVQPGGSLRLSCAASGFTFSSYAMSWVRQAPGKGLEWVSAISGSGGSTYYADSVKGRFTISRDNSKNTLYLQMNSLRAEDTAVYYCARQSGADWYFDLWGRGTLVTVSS
VL: QAVLTQPSAVSGAPGQRVTISCTGTSSNIGTNYLVHWYQQRPGTAPQLLVSGNNTRPSGVTDRFSVSKSATSASLAITGLQAEDEADYYCQTYDINLRVWVFGGGTKVTVLG
notes: also called Her2_S1R3B2_DP47_1E8
B16: S1R3C1_CS_1D3 (scFv, V domains shown)
VH: QVQLQESGPGLVKPSQTLSLTCGISGDSVSSNSAAWNWIRQSPTRGLEWLGRTYYRSSWYHNYAPSMNSRLTIIADTSKNQFSLQLNSVTPEDTAVYYCASGWAFDVWGRGTLVTVSS
VL: QSVLTQPPSASGSPGQSVTISCTGTSSDVGAYDFVSWYQQHPGKAPKLMIYEVNKRPSGVPDRFSGSKSGNTASLTVSGLQAEDEADYYCSSYAGSKNLLFGGGTKLTVLG
notes: also called Her2_S1R3C1_CS_1D3
B17: S1R2A_CS_1D3 (scFv, V domains shown)
VH: EVQLVQSGAEVKKPGASVKVSCKASGYSFTAFYIHWVRQAPGQGLEYLGWIDPNTGATKYAQRFQGRVIMTWDTSITTATMELSRLTSDDSAVYYCVRDLREWGYELSVEYWGRGTLVTVSS
VL: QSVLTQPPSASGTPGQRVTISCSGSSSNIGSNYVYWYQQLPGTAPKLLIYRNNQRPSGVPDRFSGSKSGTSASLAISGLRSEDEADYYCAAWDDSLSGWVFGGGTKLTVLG

Target: T1, extracellular domain (ECD) of Her2 (ErbB2) (human, UniProt P04626 23-652)
T1 construct: Target as named in the sentence on the thirty-one scFvs; also called ECD region of Her2
Assay: three rounds of selection and screening ELISA, soluble periplasmic scFv

| binding result | Binder |
| --- | --- |
| binds | B1 |
| binds | B2 |
| binds | B3 |
| binds | B4 |
| binds | B5 |
| binds | B6 |
| binds | B7 |
| binds | B8 |
| binds | B9 |

Target: T1, extracellular domain (ECD) of Her2 …
Assay: three rounds of selection and screening ELISA, scFv on phage

| binding result | Binder |
| --- | --- |
| binds | B10 |
| binds | B11 |
| binds | B12 |
| binds | B13 |
| binds | B14 |
| binds | B15 |
| binds | B16 |
| binds | B17 |
